Article PMC2362355, “The two phyto-oestrogens genistein and quercetin exert different effects on oestrogen receptor function”

Target: oestrogen receptor (ER), recombinant human (human, UniProt P03372 1-595)
Test: EMSA; 10 nM oestradiol; supershifted by anti-ER HC-20; 20 mM HEPES pH 7.9, 60 mM KCl, 5 mM MgCl2, 2 mM DTT, 10% glycerol, 100 ug (unit prefix not given) BSA, 380 fmol ER, 6 ng ERE, 20 ul; 20 C 20 min then 37 C 15 min; 4% native PAGE in 90 mM Tris-borate, 2.5 mM EDTA pH 8.3
Details: protein: commercial; label: 32P end label (T4 PNK); (only one strand printed, described as complementary strands, 27 bp)

Chain of oestrogen receptor (ER), recombinant human (P03372 whole entry): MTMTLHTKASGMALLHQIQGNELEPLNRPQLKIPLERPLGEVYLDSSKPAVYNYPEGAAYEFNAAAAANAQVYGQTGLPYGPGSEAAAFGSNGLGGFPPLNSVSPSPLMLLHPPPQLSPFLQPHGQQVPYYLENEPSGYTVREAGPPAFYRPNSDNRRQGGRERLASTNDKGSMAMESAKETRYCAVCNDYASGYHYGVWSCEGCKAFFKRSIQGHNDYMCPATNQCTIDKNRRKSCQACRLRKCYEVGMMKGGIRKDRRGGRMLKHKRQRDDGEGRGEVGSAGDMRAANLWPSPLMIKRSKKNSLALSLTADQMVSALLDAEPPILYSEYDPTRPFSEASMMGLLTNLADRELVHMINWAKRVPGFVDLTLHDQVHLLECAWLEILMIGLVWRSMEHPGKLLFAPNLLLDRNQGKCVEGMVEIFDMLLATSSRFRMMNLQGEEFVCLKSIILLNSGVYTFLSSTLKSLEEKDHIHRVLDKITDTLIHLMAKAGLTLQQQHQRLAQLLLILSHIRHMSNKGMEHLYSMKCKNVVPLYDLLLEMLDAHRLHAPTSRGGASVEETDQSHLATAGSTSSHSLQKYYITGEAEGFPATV

B1: consensus ERE 27 bp (dsDNA)
DNA 1: GATCCAGGTCACAGTGACCTGGGCCCG
DNA 2: CGGGCCCAGGTCACTGTGACCTGGATC
binding result: binds
